T1: FcγRIIa R (human, UniProt P12318 34-217)
T1 construct: extracellular domain; also called FcgRIIa R type; 2aR
T1 sequence (looked up): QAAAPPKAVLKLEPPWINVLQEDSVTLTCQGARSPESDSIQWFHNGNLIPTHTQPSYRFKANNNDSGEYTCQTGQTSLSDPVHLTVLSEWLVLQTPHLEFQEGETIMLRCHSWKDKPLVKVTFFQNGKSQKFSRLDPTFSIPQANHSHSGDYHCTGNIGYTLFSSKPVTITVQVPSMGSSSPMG

T2: FcγRIIb (human, UniProt P31994 43-217)
T2 construct: extracellular domain; also called FcgRIIb; 2b
T2 sequence (looked up): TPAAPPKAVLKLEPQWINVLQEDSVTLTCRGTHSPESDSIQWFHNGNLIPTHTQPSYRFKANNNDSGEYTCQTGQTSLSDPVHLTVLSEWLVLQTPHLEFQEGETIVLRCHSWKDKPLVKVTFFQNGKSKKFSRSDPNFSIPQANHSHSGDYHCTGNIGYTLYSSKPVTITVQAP

B1: GpH7-A5/GpH7-B3 variant Q295_13S/GpL16-k0 (antibody, human IgG1, kappa)
heavy 1: not shown
heavy 2: not shown
light: DIVMTQSPLSLPVTPGEPASISCQASESLVHSNRNTYLHWYLQKPGQSPQLLIYKVSNRFSGVPDRFSGSGSGTDFTLKISRVEAEDVGVYYCSQNTHVPPTFGQGTKVEIERTVAAPSVFIFPPSDEQLKSGTASVVCLLNNFYPREAKVQWKVDNALQSGNSQESVTEQDSKDSTYSLSSTLTLSKADYEKHKVYACEVTHQGLSSPVTKSFNRGEC
notes: heterodimerized antibody, mutation in the GpH7-B3 chain only; also called He Ab
B2: GpH7-A5/GpH7-B3 variant Q295_16H/GpL16-k0 (antibody, human IgG1, kappa)
heavy 1: not shown
heavy 2: not shown
light: DIVMTQSPLSLPVTPGEPASISCQASESLVHSNRNTYLHWYLQKPGQSPQLLIYKVSNRFSGVPDRFSGSGSGTDFTLKISRVEAEDVGVYYCSQNTHVPPTFGQGTKVEIERTVAAPSVFIFPPSDEQLKSGTASVVCLLNNFYPREAKVQWKVDNALQSGNSQESVTEQDSKDSTYSLSSTLTLSKADYEKHKVYACEVTHQGLSSPVTKSFNRGEC
notes: as for B1
B3: GpH7-A5/GpH7-B3 variant Y296_01G/GpL16-k0 (antibody, human IgG1, kappa)
heavy 1: not shown
heavy 2: not shown
light: DIVMTQSPLSLPVTPGEPASISCQASESLVHSNRNTYLHWYLQKPGQSPQLLIYKVSNRFSGVPDRFSGSGSGTDFTLKISRVEAEDVGVYYCSQNTHVPPTFGQGTKVEIERTVAAPSVFIFPPSDEQLKSGTASVVCLLNNFYPREAKVQWKVDNALQSGNSQESVTEQDSKDSTYSLSSTLTLSKADYEKHKVYACEVTHQGLSSPVTKSFNRGEC
notes: as for B1
B4: GpH7-A5/GpH7-B3 variant S298_04F/GpL16-k0 (antibody, human IgG1, kappa)
heavy 1: not shown
heavy 2: not shown
light: DIVMTQSPLSLPVTPGEPASISCQASESLVHSNRNTYLHWYLQKPGQSPQLLIYKVSNRFSGVPDRFSGSGSGTDFTLKISRVEAEDVGVYYCSQNTHVPPTFGQGTKVEIERTVAAPSVFIFPPSDEQLKSGTASVVCLLNNFYPREAKVQWKVDNALQSGNSQESVTEQDSKDSTYSLSSTLTLSKADYEKHKVYACEVTHQGLSSPVTKSFNRGEC
notes: as for B1
B5: GpH7-A5/GpH7-B3 variant S298_05P/GpL16-k0 (antibody, human IgG1, kappa)
heavy 1: not shown
heavy 2: not shown
light: DIVMTQSPLSLPVTPGEPASISCQASESLVHSNRNTYLHWYLQKPGQSPQLLIYKVSNRFSGVPDRFSGSGSGTDFTLKISRVEAEDVGVYYCSQNTHVPPTFGQGTKVEIERTVAAPSVFIFPPSDEQLKSGTASVVCLLNNFYPREAKVQWKVDNALQSGNSQESVTEQDSKDSTYSLSSTLTLSKADYEKHKVYACEVTHQGLSSPVTKSFNRGEC
notes: as for B1
B6: GpH7-A5/GpH7-B3 variant S298_02A/GpL16-k0 (antibody, human IgG1, kappa)
heavy 1: not shown
heavy 2: not shown
light: DIVMTQSPLSLPVTPGEPASISCQASESLVHSNRNTYLHWYLQKPGQSPQLLIYKVSNRFSGVPDRFSGSGSGTDFTLKISRVEAEDVGVYYCSQNTHVPPTFGQGTKVEIERTVAAPSVFIFPPSDEQLKSGTASVVCLLNNFYPREAKVQWKVDNALQSGNSQESVTEQDSKDSTYSLSSTLTLSKADYEKHKVYACEVTHQGLSSPVTKSFNRGEC
notes: as for B1
B7: GpH7-A5/GpH7-B3 variant Q295_15Y/GpL16-k0 (antibody, human IgG1, kappa)
heavy 1: not shown
heavy 2: not shown
light: DIVMTQSPLSLPVTPGEPASISCQASESLVHSNRNTYLHWYLQKPGQSPQLLIYKVSNRFSGVPDRFSGSGSGTDFTLKISRVEAEDVGVYYCSQNTHVPPTFGQGTKVEIERTVAAPSVFIFPPSDEQLKSGTASVVCLLNNFYPREAKVQWKVDNALQSGNSQESVTEQDSKDSTYSLSSTLTLSKADYEKHKVYACEVTHQGLSSPVTKSFNRGEC
notes: as for B1
B8: GpH7-A5/GpH7-B3 variant S298_01G/GpL16-k0 (antibody, human IgG1, kappa)
heavy 1: not shown
heavy 2: not shown
light: DIVMTQSPLSLPVTPGEPASISCQASESLVHSNRNTYLHWYLQKPGQSPQLLIYKVSNRFSGVPDRFSGSGSGTDFTLKISRVEAEDVGVYYCSQNTHVPPTFGQGTKVEIERTVAAPSVFIFPPSDEQLKSGTASVVCLLNNFYPREAKVQWKVDNALQSGNSQESVTEQDSKDSTYSLSSTLTLSKADYEKHKVYACEVTHQGLSSPVTKSFNRGEC
notes: as for B1
B9: GpH7-A5/GpH7-B3 variant S298_09D/GpL16-k0 (antibody, human IgG1, kappa)
heavy 1: not shown
heavy 2: not shown
light: DIVMTQSPLSLPVTPGEPASISCQASESLVHSNRNTYLHWYLQKPGQSPQLLIYKVSNRFSGVPDRFSGSGSGTDFTLKISRVEAEDVGVYYCSQNTHVPPTFGQGTKVEIERTVAAPSVFIFPPSDEQLKSGTASVVCLLNNFYPREAKVQWKVDNALQSGNSQESVTEQDSKDSTYSLSSTLTLSKADYEKHKVYACEVTHQGLSSPVTKSFNRGEC
notes: as for B1
B10: GpH7-A5/GpH7-B3 variant S298_03V/GpL16-k0 (antibody, human IgG1, kappa)
heavy 1: not shown
heavy 2: not shown
light: DIVMTQSPLSLPVTPGEPASISCQASESLVHSNRNTYLHWYLQKPGQSPQLLIYKVSNRFSGVPDRFSGSGSGTDFTLKISRVEAEDVGVYYCSQNTHVPPTFGQGTKVEIERTVAAPSVFIFPPSDEQLKSGTASVVCLLNNFYPREAKVQWKVDNALQSGNSQESVTEQDSKDSTYSLSSTLTLSKADYEKHKVYACEVTHQGLSSPVTKSFNRGEC
notes: as for B1
B11: GpH7-A5/GpH7-B3 variant S298_07I/GpL16-k0 (antibody, human IgG1, kappa)
heavy 1: not shown
heavy 2: not shown
light: DIVMTQSPLSLPVTPGEPASISCQASESLVHSNRNTYLHWYLQKPGQSPQLLIYKVSNRFSGVPDRFSGSGSGTDFTLKISRVEAEDVGVYYCSQNTHVPPTFGQGTKVEIERTVAAPSVFIFPPSDEQLKSGTASVVCLLNNFYPREAKVQWKVDNALQSGNSQESVTEQDSKDSTYSLSSTLTLSKADYEKHKVYACEVTHQGLSSPVTKSFNRGEC
notes: as for B1
B12: GpH7-A5/GpH7-B3 variant V266_16H/GpL16-k0 (antibody, human IgG1, kappa)
heavy 1: not shown
heavy 2: not shown
light: DIVMTQSPLSLPVTPGEPASISCQASESLVHSNRNTYLHWYLQKPGQSPQLLIYKVSNRFSGVPDRFSGSGSGTDFTLKISRVEAEDVGVYYCSQNTHVPPTFGQGTKVEIERTVAAPSVFIFPPSDEQLKSGTASVVCLLNNFYPREAKVQWKVDNALQSGNSQESVTEQDSKDSTYSLSSTLTLSKADYEKHKVYACEVTHQGLSSPVTKSFNRGEC
notes: as for B1
B13: GpH7-A5/GpH7-B3 variant Q295_18N/GpL16-k0 (antibody, human IgG1, kappa)
heavy 1: not shown
heavy 2: not shown
light: DIVMTQSPLSLPVTPGEPASISCQASESLVHSNRNTYLHWYLQKPGQSPQLLIYKVSNRFSGVPDRFSGSGSGTDFTLKISRVEAEDVGVYYCSQNTHVPPTFGQGTKVEIERTVAAPSVFIFPPSDEQLKSGTASVVCLLNNFYPREAKVQWKVDNALQSGNSQESVTEQDSKDSTYSLSSTLTLSKADYEKHKVYACEVTHQGLSSPVTKSFNRGEC
notes: as for B1
B14: GpH7-A5/GpH7-B3 variant Q295_20W/GpL16-k0 (antibody, human IgG1, kappa)
heavy 1: not shown
heavy 2: not shown
light: DIVMTQSPLSLPVTPGEPASISCQASESLVHSNRNTYLHWYLQKPGQSPQLLIYKVSNRFSGVPDRFSGSGSGTDFTLKISRVEAEDVGVYYCSQNTHVPPTFGQGTKVEIERTVAAPSVFIFPPSDEQLKSGTASVVCLLNNFYPREAKVQWKVDNALQSGNSQESVTEQDSKDSTYSLSSTLTLSKADYEKHKVYACEVTHQGLSSPVTKSFNRGEC
notes: as for B1

Experiments:
FcγRIIa R [1] = molecular target: T1, FcγRIIa R; assay: SPR; He/Con_2aR divided by He/Con_2b (FcγRIIb as reference)
Description: The heterodimerized antibodies He Abs in which one of the H chains was introduced with an alteration were assayed for their binding activities to each activating FcγR and inhibitory FcγR according to the method described in Example 4. […] The activating FcγRs in FIGS. 26, 27, 28, and 29 are FcγRIa, FcγRIIa (R), FcγRIIa (H), and FcγRIIIa, respectively.
Analysis of interaction between objective antibody and the FcγR was carried out using Biacore T100 (GE Healthcare). HBS-EP+ (GE Healthcare) was used as the running buffer, and the measurement temperature was set to 25° C. Chips produced by immobilizing the antigen peptide by the amine coupling method to a Series S Sencor Chip CM5 (GE Healthcare), or alternatively, chips produced by allowing preliminarily biotinylated antigen peptides to interact with and immobilize onto a Series S Sensor Chip SA (certified) (GE Healthcare) were used. Antibodies of interest were captured onto an antigen peptide-immobilized chip, and allowed to interact to each FcγR diluted with running buffer. To regenerate and repeatedly use the chip, the antibodies captured on the chip were washed off by reacting 10 mM glycine-HCl, pH 1.5.

FcγRIIa R [2] = molecular target: T1, FcγRIIa R; assay: SPR (Biacore), antibody captured, FcγR as analyte; relative binding
FcγRIIb = molecular target: T2, FcγRIIb; assay: as above

Binder	IIaR/IIb (He_2aR/2b) (FcγRIIa R [1]) [ratio]	He/Con_2aR (IIaR binding) (FcγRIIa R [2])	He/Con_2b (IIb binding) (FcγRIIb)
B1	1.3	73.7 % of GpH7-A5/GpH7-B3/GpL16-k0 (=100)	56.9 % of GpH7-A5/GpH7-B3/GpL16-k0 (=100)
B2	1.3	81.3 % of GpH7-A5/GpH7-B3/GpL16-k0 (=100)	62.7 % of GpH7-A5/GpH7-B3/GpL16-k0 (=100)
B3	1.21	95.8 % of GpH7-A5/GpH7-B3/GpL16-k0 (=100)	79.3 % of GpH7-A5/GpH7-B3/GpL16-k0 (=100)
B4	1.29	84 % of GpH7-A5/GpH7-B3/GpL16-k0 (=100)	65.4 % of GpH7-A5/GpH7-B3/GpL16-k0 (=100)
B5	1.34	16 % of GpH7-A5/GpH7-B3/GpL16-k0 (=100)	11.9 % of GpH7-A5/GpH7-B3/GpL16-k0 (=100)
B6	1.24	91.2 % of GpH7-A5/GpH7-B3/GpL16-k0 (=100)	73.4 % of GpH7-A5/GpH7-B3/GpL16-k0 (=100)
B7	1.27	82.8 % of GpH7-A5/GpH7-B3/GpL16-k0 (=100)	65.4 % of GpH7-A5/GpH7-B3/GpL16-k0 (=100)
B8	1.23	98.8 % of GpH7-A5/GpH7-B3/GpL16-k0 (=100)	80.1 % of GpH7-A5/GpH7-B3/GpL16-k0 (=100)
B9	1.4	67.8 % of GpH7-A5/GpH7-B3/GpL16-k0 (=100)	48.3 % of GpH7-A5/GpH7-B3/GpL16-k0 (=100)
B10	1.34	86.3 % of GpH7-A5/GpH7-B3/GpL16-k0 (=100)	64.5 % of GpH7-A5/GpH7-B3/GpL16-k0 (=100)
B11	1.28	90.1 % of GpH7-A5/GpH7-B3/GpL16-k0 (=100)	70.6 % of GpH7-A5/GpH7-B3/GpL16-k0 (=100)
B12	1.34	76.5 % of GpH7-A5/GpH7-B3/GpL16-k0 (=100)	57.2 % of GpH7-A5/GpH7-B3/GpL16-k0 (=100)
B13	1.27	82.4 % of GpH7-A5/GpH7-B3/GpL16-k0 (=100)	64.9 % of GpH7-A5/GpH7-B3/GpL16-k0 (=100)
B14	1.35	60 % of GpH7-A5/GpH7-B3/GpL16-k0 (=100)	44.4 % of GpH7-A5/GpH7-B3/GpL16-k0 (=100)
